# Test results as given in the supplement of paper PMC10065799, “High-throughput profiling of sequence recognition by tyrosine kinases and SH2 domains using bacterial peptide display” (eLife, 2023).
# System: AncSZ
# Assay: phosphorylation enrichment, bacterial display (enrichment ratio); higher = better substrate or ligand; peptides without Tyr show the background
# 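Note: 11-residue human phosphosite peptides and single-mutation variants displayed on the E. coli surface, counted by deep sequencing, each peptide's frequency after selection divided by its frequency in the unselected input library; frequency after pTyr selection over input frequency; kinase dosed for 20-30% of maximal phosphorylation in three min.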
row,Sequence,phosphorylation enrichment
1,GFPVHYTDVSN [DNMT3B_Y815],0.661
2,RRGTRYMSSRP [RPL21_Y13_F15S],0.439
3,VIECSYTSADG [DHCR7_Y382],1.02
4,SARFHYLMAEK [LDHB_Y173_R172H],0.666
5,EEESCYILHSS [PATJ_Y783],1.63
6,QSKGIYFVQLE [MGAT4B_Y262_YF],1.51
7,PMQMPYDSRWE [PDGFRA_Y582_L580M],1.52
8,FQEKGYNKELR [CHRND_Y38],0.675
9,KAIMTYVPSFY [ACTN4_Y260_S262P],0.67
10,KVNKIYYPDFI [LIG3_Y767],0.727
11,FSDPSYVKQME [CDC5L_Y464_YF],0.867
12,ADFPDCKFRPR [SOX11_Y116_Y116C_YF],0.783
13,ETPSEYLEIVR [TMEM130_Y412],1.17
14,FPLELYERVRM [PRKCG_Y312_YF],1.39
15,FDFKKYGKGLR [ZNF445_Y433_YF],0.531
16,WISNRSLDFSS [PRPH2_Y184_Y184S],0.646
17,TFWKKYRTFWK [CCDC70_Y125],0.702

row,Sequence,phosphorylation enrichment
1,LQTYHYHGHSM [PDHA1_Y289_R288H],0.974
2,DVMDFYKTLRG [NR3C1_Y30],0.719
3,AEKPKYQINNI [TJP1_Y1602],0.541
4,HSFQCYGRNEA [ENTPD3_Y262],1.23
5,SSVAGYACLAF [MVD_Y131_A128V_YF],0.903
6,MTYMFYRENLR [NLRP14_Y443_V441M],1.33
7,SPYAVYLFFTF [RPGRIP1_Y826_R827L],0.928
8,TDGIAYEFRVT,1.36
9,LSRDVYEEDSF [RET_Y900_YF],1.77
10,TVLEHYRRTHC [MYBPC3_Y1119],0.526
11,CTTIHKNYMCN [TP53_Y234_Y234K],0.733
12,NNDLCYWVPEL [IARS1_Y434],2.86
13,SNNYIYTTLGV [FAM83B_Y639_K640T],1.07
14,QLLIKYPPEEV [ZZZ3_Y670],1.25
15,KFMVGYEMIAQ [GALT_Y339_L342I],1.03
16,ALRHYYKLNII [ETV6_Y402],0.968

# System: c-Abl (mouse)
# Assay: as above
row,Sequence,phosphorylation enrichment
1,GFPVHYTDVSN [DNMT3B_Y815],0.5
2,RRGTRYMSSRP [RPL21_Y13_F15S],0.527
3,VIECSYTSADG [DHCR7_Y382],0.825
4,SARFHYLMAEK [LDHB_Y173_R172H],0.372
5,EEESCYILHSS [PATJ_Y783],0.892
6,QSKGIYFVQLE [MGAT4B_Y262_YF],1.63
7,PMQMPYDSRWE [PDGFRA_Y582_L580M],1.96
8,FQEKGYNKELR [CHRND_Y38],0.45
9,KAIMTYVPSFY [ACTN4_Y260_S262P],0.803
10,KVNKIYYPDFI [LIG3_Y767],0.589
11,FSDPSYVKQME [CDC5L_Y464_YF],0.471
12,ADFPDCKFRPR [SOX11_Y116_Y116C_YF],0.744
13,ETPSEYLEIVR [TMEM130_Y412],0.652
14,FPLELYERVRM [PRKCG_Y312_YF],0.804
15,FDFKKYGKGLR [ZNF445_Y433_YF],0.392
16,WISNRSLDFSS [PRPH2_Y184_Y184S],0.578
17,TFWKKYRTFWK [CCDC70_Y125],0.723

row,Sequence,phosphorylation enrichment
1,LQTYHYHGHSM [PDHA1_Y289_R288H],0.559
2,DVMDFYKTLRG [NR3C1_Y30],0.571
3,AEKPKYQINNI [TJP1_Y1602],0.548
4,HSFQCYGRNEA [ENTPD3_Y262],0.736
5,SSVAGYACLAF [MVD_Y131_A128V_YF],0.949
6,MTYMFYRENLR [NLRP14_Y443_V441M],0.751
7,SPYAVYLFFTF [RPGRIP1_Y826_R827L],0.797
8,TDGIAYEFRVT,0.933
9,LSRDVYEEDSF [RET_Y900_YF],1.57
10,TVLEHYRRTHC [MYBPC3_Y1119],0.532
11,CTTIHKNYMCN [TP53_Y234_Y234K],0.603
12,NNDLCYWVPEL [IARS1_Y434],8.63
13,SNNYIYTTLGV [FAM83B_Y639_K640T],2.88
14,QLLIKYPPEEV [ZZZ3_Y670],1.25
15,KFMVGYEMIAQ [GALT_Y339_L342I],0.696
16,ALRHYYKLNII [ETV6_Y402],0.839
